T1: cEYFP-PhBSβ (PhBSβ tagged at its N-terminus with the C-terminal half of EYFP) (Petunia hybrida)
T1 construct: BiFC construct, transiently expressed in Nicotiana benthamiana leaves; not shown: C-terminal half of enhanced yellow fluorescent protein (cEYFP) of plasmid pCNHP-cYFP-C
T1 chain: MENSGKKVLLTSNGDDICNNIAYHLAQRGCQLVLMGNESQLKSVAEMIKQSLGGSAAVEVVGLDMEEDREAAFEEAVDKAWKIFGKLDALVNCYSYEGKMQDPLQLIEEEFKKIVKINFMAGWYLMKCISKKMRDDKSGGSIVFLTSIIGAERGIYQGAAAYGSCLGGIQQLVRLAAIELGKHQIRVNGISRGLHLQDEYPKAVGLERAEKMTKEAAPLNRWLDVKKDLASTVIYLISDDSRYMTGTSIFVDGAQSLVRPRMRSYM

B1: nEYFP-PhBSα (PhBSα tagged at its N-terminus with the N-terminal half of EYFP) (other)
chain: MEKQTQARFLEPWRDLKGKVVMVTGASSGIGLDLCLDLAKAGCKIIAAARRVDRLKSLCNQINAAADDDDDNNRAVAVELDVSANGDAIEAAVKEAWGAFGRIDALVNNAGVRGTVHSPLELTEEECHNTFRTNLTGTWLVSKYVCKFMRDAKQGGSVINISSIAGLNRGQLPGGLAYVSSKGAVNMVTKVMALELGVDKIRVNSISPGLFKSEITQGLIQKEWLNNVAMRTIPLRTHGNSADPALTSVVRYLIHDSSEYVSGNLFIVDAGATLPGVPIFSSL
notes: BiFC construct, transiently expressed in Nicotiana benthamiana leaves; not shown: N-terminal half of enhanced yellow fluorescent protein (nEYFP) of plasmid pCNHP-nEYFP-C
B2: MBP-PhBSα (maltose binding protein-tagged alpha subunit of Petunia hybrida benzaldehyde synthase) (enzyme, not shown: large carriers)
chain: B1 chain
notes: Coding region amplified from petunia petal cDNA, expressed in E. coli from pMAL-c5X, purified on amylose resin; also called MBP-tagged α-subunit; MBP-PbBSα
B3: MBP-tagged AtBSβ (beta subunit of Arabidopsis thaliana benzaldehyde synthase) (enzyme, not shown: large carriers)
chain: MENPAKRVLMTSNGDEVSRNIAFHLAKHGCKLVMMGNEGSLRSIVDKIRDSIEGAFPADVIALDMESDSEVAFHAAVQKAWELSGHFDAFLNSYTYQGKVQDILQVSQDEFHRITKINLTAPWFLLKAVATRMKDHGSGGSIVFMATIASGERALYPGADAYASTSAAIHQLVRASAMSLGKHKIRVNMISRGLHLDDEYTASVGRDRAQKLVKDAAPLGQWLNPDTDLYSTVIYLISDGSRFMTGTTVLVDGAQSLTRPRLKSYM
notes: Purified recombinant subunit from E. coli; CDS amplified from flower cDNA (gene AT3G01980)
B4: MBP-tagged PhBSβ (beta subunit of Petunia hybrida benzaldehyde synthase) (enzyme, not shown: large carriers)
chain: T1 chain
notes: Purified recombinant subunit from E. coli (pMAL-c5X, amylose resin); also called PtBSβ

What was measured:
[1] = target: T1, cEYFP-PhBSβ (PhBSβ tagged at its …); assay: bimolecular fluorescence complementation (BiFC) in Nicotiana benthamiana leaves, confocal microscopy
Experimental: The resulting constructs were used for transient expression in N. benthamiana leaves.
Transformation of constructs into A. tumefaciens and infiltration of cell cultures in tobacco leaves were performed as described above except that the final OD₆₀₀ of the culture was adjusted to 0.6. […] 48 hours after infiltration, the fluorescent signals in the leaves were imaged using a Zeiss LSM-880 laser-scanning confocal microscope (Zeiss, Thornwood, NY, USA).

[2] = target: the molecule itself; assay: size exclusion chromatography (Superdex 200 Increase 10/300 GL), about 1 mg/mL; self-association
Experimental: (§1) 500 μL purified protein (˜ 500 μg) were loaded onto a Superdex 200 Increase 10/300 GL size exclusion column and eluted with PBS. The column was calibrated with the following markers: bovine thyroglobulin (670 kDa), bovine gamma globulin (158 kDa), chicken ovalbumin (44 kDa), horse myoglobulin (17 kDa), and vitamin B-12 (1.4 kDa).

[3] = target: B2; assay: size exclusion chromatography (Superdex 200 Increase 10/300 GL), about 1 mg/mL
Experimental: as §1

B1
binding result [1]: binds

B2
binding result [2]: binds

B3
binding result [2]: binds
binding result [3]: binds

B4
binding result [2]: binds
